Laboratory results published in IntAct's records for PubMed 25914052.

B1: General negative regulator of transcription subunit 4 (Saccharomyces cerevisiae), P34909 (parent)
chain: MMNPHVQENLQAIHNALSNFDTSFLSEDEEDYCPLCIEPMDITDKNFFPCPCGYQICQFCYNNIRQNPELNGRCPACRRKYDDENVRYVTLSPEELKMERAKLARKEKERKHREKERKENEYTNRKHLSGTRVIQKNLVYVVGINPPVPYEEVAPTLKSEKYFGQYGKINKIVVNRKTPHSNNTTSEHYHHHSPGYGVYITFGSKDDAARCIAQVDGTYMDGRLIKAAYGTTKYCSSYLRGLPCPNPNCMFLHEPGEEADSFNKRELHNKQQAQQQSGGTAFTRSGIHNNISTSTAGSNTNLLSENFTGTPSPAAMRAQLHHDSHTNAGTPVLTPAPVPAGSNPWGVTQSATPVTSINLSKNSSSINLPTLNDSLGHHTTPTTENTITSTTTTTNTNATSHSHGSKKKQSLAAEEYKDPYDALGNAVDFLDARLHSLSNYQKRPISIKSNIIDEETYKKYPSLFSWDKIEASKKSDNTLANKLVEILAIKPIDYTASVVQFLQSVNVGVNDNITITDNTKTPTQPIRLQTVSQQIQPPLNVSTPPPGIFGPQHKVPIQQQQMGDTSSRNSSDLLNQLINGRKIIAGN

Variants of: B1
Details: with not1_yeast CDC39, P25655
Sequence of not1_yeast CDC39, P25655 (P25655 whole entry): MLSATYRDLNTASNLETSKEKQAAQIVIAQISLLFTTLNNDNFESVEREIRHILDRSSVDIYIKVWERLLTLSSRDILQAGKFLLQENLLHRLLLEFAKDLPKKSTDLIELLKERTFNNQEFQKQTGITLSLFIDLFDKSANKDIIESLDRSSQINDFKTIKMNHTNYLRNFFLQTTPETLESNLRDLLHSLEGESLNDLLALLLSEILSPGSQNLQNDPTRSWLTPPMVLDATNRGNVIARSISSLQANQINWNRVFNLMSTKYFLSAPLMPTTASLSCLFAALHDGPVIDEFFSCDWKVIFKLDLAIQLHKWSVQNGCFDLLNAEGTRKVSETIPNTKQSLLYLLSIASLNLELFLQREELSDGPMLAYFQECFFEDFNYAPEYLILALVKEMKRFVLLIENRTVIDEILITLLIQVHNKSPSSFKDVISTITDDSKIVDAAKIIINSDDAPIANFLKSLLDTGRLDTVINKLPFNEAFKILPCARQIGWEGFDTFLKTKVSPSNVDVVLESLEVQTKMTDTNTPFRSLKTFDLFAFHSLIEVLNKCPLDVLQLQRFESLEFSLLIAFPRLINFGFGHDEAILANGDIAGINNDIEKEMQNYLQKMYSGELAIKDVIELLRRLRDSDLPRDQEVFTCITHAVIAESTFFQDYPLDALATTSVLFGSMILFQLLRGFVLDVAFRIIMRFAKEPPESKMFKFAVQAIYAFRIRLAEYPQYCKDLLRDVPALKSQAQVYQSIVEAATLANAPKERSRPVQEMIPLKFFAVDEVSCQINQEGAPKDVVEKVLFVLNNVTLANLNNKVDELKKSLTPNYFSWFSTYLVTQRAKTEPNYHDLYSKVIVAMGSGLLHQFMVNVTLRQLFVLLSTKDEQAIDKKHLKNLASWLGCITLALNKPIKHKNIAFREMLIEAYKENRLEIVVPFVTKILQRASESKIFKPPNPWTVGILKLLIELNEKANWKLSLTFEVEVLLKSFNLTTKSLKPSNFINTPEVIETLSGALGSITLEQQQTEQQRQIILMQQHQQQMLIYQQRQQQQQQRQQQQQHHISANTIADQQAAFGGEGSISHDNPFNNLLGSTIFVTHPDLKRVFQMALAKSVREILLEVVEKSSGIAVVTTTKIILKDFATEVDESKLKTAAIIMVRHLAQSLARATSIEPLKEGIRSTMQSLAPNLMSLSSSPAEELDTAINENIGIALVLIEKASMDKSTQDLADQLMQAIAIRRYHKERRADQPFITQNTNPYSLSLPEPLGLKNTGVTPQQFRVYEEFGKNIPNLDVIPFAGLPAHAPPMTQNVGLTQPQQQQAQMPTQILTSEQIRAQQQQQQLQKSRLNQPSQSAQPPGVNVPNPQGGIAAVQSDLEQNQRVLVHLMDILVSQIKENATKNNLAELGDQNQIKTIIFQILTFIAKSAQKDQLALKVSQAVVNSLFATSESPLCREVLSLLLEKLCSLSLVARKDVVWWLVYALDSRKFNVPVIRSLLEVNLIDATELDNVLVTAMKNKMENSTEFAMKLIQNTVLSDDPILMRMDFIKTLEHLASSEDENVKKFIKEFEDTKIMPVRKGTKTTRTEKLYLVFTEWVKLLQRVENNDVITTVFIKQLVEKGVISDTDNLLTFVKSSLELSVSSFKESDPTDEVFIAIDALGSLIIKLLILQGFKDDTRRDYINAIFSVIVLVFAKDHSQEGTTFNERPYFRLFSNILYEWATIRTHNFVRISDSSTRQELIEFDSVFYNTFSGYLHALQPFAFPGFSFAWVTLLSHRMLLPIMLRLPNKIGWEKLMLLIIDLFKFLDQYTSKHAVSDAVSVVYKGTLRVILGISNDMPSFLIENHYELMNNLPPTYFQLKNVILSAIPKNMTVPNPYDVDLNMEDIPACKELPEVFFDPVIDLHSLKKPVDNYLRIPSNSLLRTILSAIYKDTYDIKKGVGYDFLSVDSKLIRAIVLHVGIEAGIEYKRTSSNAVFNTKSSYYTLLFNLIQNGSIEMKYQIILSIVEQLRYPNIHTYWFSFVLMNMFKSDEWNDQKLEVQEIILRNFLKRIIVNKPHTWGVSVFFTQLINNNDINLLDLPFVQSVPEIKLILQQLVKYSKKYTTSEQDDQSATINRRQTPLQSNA

Row | Variant | effect of a mutation on the interaction
1 | MMNPHVQENLQAIHNALSNFDTSFLSEDEEDYCPLCIEPMDITDKNFFPCPCGYQICQFCYNNIRQNPELNGRCPACRRKYDDENVRYVTLSPEELKMERAKLARKEKERKHREKERKENEYTNRKHLSGTRVIQKNLVYVVGINPPVPYEEVAPTLKSEKYFGQYGKINKIVVNRKTPHSNNTTSEHYHHHSPGYGVYITFGSKDDAARCIAQVDGTYMDGRLIKAAYGTTKYCSSYLRGLPCPNPNCMFLHEPGEEADSFNKRELHNKQQAQQQSGGTAFTRSGIHNNISTSTAGSNTNLLSENFTGTPSPAAMRAQLHHDSHTNAGTPVLTPAPVPAGSNPWGVTQSATPVTSINLSKNSSSINLPTLNDSLGHHTTPTTENTITSTTTTTNTNATSHSHGSKKKQSLAAEEYKDPYDALGNAVDFLDARLHSLSNYQKRPISIKSNIIDEETYKKYPSEESWDKIEASKKSDNTLANKLVEILAIKPIDYTASVVQFLQSVNVGVNDNITITDNTKTPTQPIRLQTVSQQIQPPLNVSTPPPGIFGPQHKVPIQQQQMGDTSSRNSSDLLNQLINGRKIIAGN [L463E;F464E] | disrupting interaction
2 | MMNPHVQENLQAIHNALSNFDTSFLSEDEEDYCPLCIEPMDITDKNFFPCPCGYQICQFCYNNIRQNPELNGRCPACRRKYDDENVRYVTLSPEELKMERAKLARKEKERKHREKERKENEYTNRKHLSGTRVIQKNLVYVVGINPPVPYEEVAPTLKSEKYFGQYGKINKIVVNRKTPHSNNTTSEHYHHHSPGYGVYITFGSKDDAARCIAQVDGTYMDGRLIKAAYGTTKYCSSYLRGLPCPNPNCMFLHEPGEEADSFNKRELHNKQQAQQQSGGTAFTRSGIHNNISTSTAGSNTNLLSENFTGTPSPAAMRAQLHHDSHTNAGTPVLTPAPVPAGSNPWGVTQSATPVTSINLSKNSSSINLPTLNDSLGHHTTPTTENTITSTTTTTNTNATSHSHGSKKKQSLAAEEYKDPYDALGNAVDFLDARLHSLSNYQKRPISIKSNIIDEETYKKYPSLESEDKIEASKKSDNTLANKLVEILAIKPIDYTASVVQFLQSVNVGVNDNITITDNTKTPTQPIRLQTVSQQIQPPLNVSTPPPGIFGPQHKVPIQQQQMGDTSSRNSSDLLNQLINGRKIIAGN [F464E;W466E] | disrupting interaction
